According to patent US20110008774A1 (CORNELL RESEARCH FOUNDATION, published 2011):
Residue numbers refer to the chain shown, from its start.

B1: scFv13 variant S20 (scFv)
scFv: MADYKDDDDKGGSAEVQLVESGGGLVKPGGSLRLSCAASGFTFSNNSMNWVRQAPGKGLEWVSSISSSSSYIYYADFVKGRFTISRDNAKNSLYLQMNSLRAEDTAVYYCARSSTTIFGGGMDVWGRGTLVTVSSGGGGSGEGGSGGGGSQSVLTQPASVSGSPGQSITISCAGTSSDVGGYNYVSWYQQHPGKAPKLMIYEDSKRPSGVSNRFSGSKSGNTASLTISGLQAEDEADYYCSSYTTRSTRVFGGGTKLAVLGAAAEQKLISEGDLNGAAELHHHHHH
B2: scFv13 variant S23 (scFv)
scFv: B1 scFv with N46Y, V62I, A89V, T115I, E142G, P192L, D203G, P207S, G272E

Molecular target: AMEF β-gal (normally inactive β-galactosidase variant, AMEF 959) (E. coli)
Assay: cell-based or functional assay

Binder | AMEF β-gal activation in vivo (whole cell X-gal hydrolysis, absorbance at 620 nm) [fold over wt scFv13]
B1 | ~2
B2 | ~2
